# Data taken from the DeepSol protein solubility set.
# Experiment: soluble on expression in E. coli; label from the status in PepcDB or PDB records
row,Sequence,soluble on expression in E. coli
1,MADIVVDGIRATYNIRGESAALLCPPHPLMGGSRFDVRLERIAAELTKRNVSVLRFDYQRPFRSGIGEVEDAKKCVAYLKDRHDKIAVIRYSFGSVVASNVAEYCDAAVYISPLPEINSIYFKDAEIPKLFIIATRDQFVSLEESVKLYEQASKPKEVVKVETDHFYFGKFDFIAKITADFIERQSF,soluble
2,MGSDKIHHHHHHMILDERVNSNFDQLNDNDIQIAHYVNTHIDVCKNMKIQDLASQTHASNATIHRFTRKLGFDGYSDFKSFLKFEDSKNHQLPSDSMEQFKQEIENTFNYLERIDYRLLTHKMHHATTIYLYGTGRAQMNVAEEAQRILLTMHKNIILLHDVHELKMVLNKTIPEDLFFIISLSGETHQLKEVTQLLQLRQKYFISVTTMKDNTLAQQADYNVYVSSNTFYLNDGTDYSSFISYHIFFETLLRKYNEYKENHELT,not soluble
3,MVLLGRGLLAVGRVAFRRPMIVRHLQYDAFVDRHIGPRRLEQQQMLDFIGYKDLDDLTGTNVPNMIKAEKALELPAPLDEYKMLKELEAIAAQNKIYRSYIGMGYYDTIVPAVISRNILQNIGWISQYTPYQAEISQGRLESLLNFQTMIAEMTGLPTTNASLLDEATASAEAVALAARTTKRNKIVVDSFCHPQNLDVIRTRSGPLGIDIEVSDSIEGYAFDDKVAAVVVQYPNTEGRIHQFDELIESAHKNKSLVIMVCDLLSLTILRSPGDLGADIAVGSAQRFGVPLGYGGPHAGFMAVAKHDAKNALGRNIPGRIIGVTKDANGNRALRLALQTREQHIRRDKATSNICTAQALLANMSAMYAVYHGPQRLTEIARGVHKSTAYLAYHLRNAGHEIVHKDYFDTLKIRLKDKAALEETKKRAEEMKMNFRYYEDGDIGVSLDETVKSEDLMDIIYTLNGATEKDVTKLREERWEVACPLIGNSPHSRSSLFLQHPVFNTHQSEQQLVRYMKRLENKDVSLVHSMIPLGSCTMKLNASAELIPITWPTLSSIHPFAPVEQAKGYSRIFGDLEKWLCEITGYDNFSLQPNSGANGEYAGLLAIRNYLIHKGEEQRNICLIPTSAHGTNPASAQMANMKVVVVDSDHHGNINYKDLAAKAEKYSNQLAAIMVTYPSTHGVFESSIRDVCDKVHEHGGQVYLDGANMNAQVGLCRPGDYGSDVSHLNLHKTFCIPHGGGGPGVGPIGVKKHLAPFLPGHSVVPVDGRKVGSVASAPYGSASILAITWAYIRMMGPVGLREASQVAILNANYMAKRLENDYRIVYKDEQGLVAHEFIMDCKPFKKHGIEVVDIAKRLMDYGFHSPTMSWPVHDCLMIEPTESEDKAEMDRLVEALLSIREEIRQVENGSLDKHLNPLKMAPHTLEKVTSDNWNMPYSRELAAFPKPWCTHKAWPTVGRVDDQYGDRNLVCTCPPIESYQ,not soluble
4,MQKESQTYKIAPAERLASVSEYYFSKKLKEVAQMNAEGKDVISLGIGSPDMPPSKVTIETLCNNAHDPNGHGYQPYVGIPELRKGFAAWYQRWYGVELNPNTEIQPLIGSKEGILHVTLAFVNPGEQVLVPNPGYPTYTSLSKILGAEVISYDLKEEDGWMPDFEALEKMDLNRVKLMWTNYPNMPTGANATPELYERLVDFARRKNIVIVNDNPYSFILNEKPISILSVPGAKECCIEFNSMSKSHNMPGWRIGMLASNAEFVQWILKVKSNIDSGMFRAMQLAAATALEAEADWYEGNNHNYRGRRHLAGEIMKTLGCTYDENQVGMFLWGKIPASCKDVEELTEKVLHQARVFITPGFIFGSNGARFIRISLCCKDAKLAEALERIKKLS,not soluble
5,MAHHHHHHMLHRIPAYRDPLLQVLSDALKRALDFYRREMSAGMSVEFECRLGTFSASKHTYAHPFPTHTLTPALLDGQSTTPFFFFAGVAQPSFIAAHETLKTIGASMPPRSSTVLSVRTVGKDRLEYAMNEACNSGHLLTIVEKERIFSHDVRCPGWGADFRVSVSREKTIDRETWNQAKWESFTPNISRLRQRKSVRIDPFLSVDMAMVRSFTDHSRFVRPWSPELQVPFISAPHVSFDVELEVNMPALHRVVKQTRLVESTLGRTALDLLTVLQFLAAKRE,not soluble
6,MGRIIILDENTANQIAAGEVVERPASVVKELVENSIDAGSTNISVEINNGGISFIKVVDNGSGIEEDDIEIAFERHATSKIRRASDLEAITSLGFRGEALASIASVSTVEVTSRPAHREYGRYVKIQGGTVLESGQVGCPAGTTFIVRDLFYNTPARFKFLKKDSTEAGYVSDIVSRIALGNPDISFRLINNKNTVIHTPGNNDLLSTIYSLYGKETAKECMEISYEDETVKITGYAGSPEIARANRNYQSIYLNKRYIKNKVISSAIDEAYKTYLMKNKFAFIVLYIELNPLLVDVNVHPTKMEVRFSREQEIFRAVYHAVNNALLSKTHIRNVSLKDSPKNYFKFEQSSKKEADYVQQRLDTDRKFSGYNYDEDFKTEKTNTSKSTWENLIVKESANINKRKDETIDEVINKNEVGDKNKVISEDEVINKDEVINKDKVINKDKVINKGEVVNKVNVNEVENESVDNLINGQISGLVNWAINEPINKTNDKLIEKSDGTALKGTGEECYNFDKSGYDNILKDVSDKPKDNRNDVDNNADTNFEKIRDGKDTRPQQDIERNVFLDARIIGQVFSTYILLQNEDDLIIIDQHAAHERIRFEELKEKYARNESLAQYLLTPVVIELTNQEIVFLEEEKELFNKLGFIFESFGNNSIILRSVPIPDEGVGVKEAFLEVVDFLMSKGRKYDKIIEEDALYQIACKSAVKANKKLDEIEIKAILDKLNMLQNPYTCPHGRPTVVKITKYEFEKMFKRIV,not soluble
7,MSLVTIKEIASAVGVSSATVSRVLNYDPTLSISTRKRQAIIETAEALNYATPRNRNRAAAQAVGSGLKIALVHFLDPAQELADPYYVGVRLGIESRCQALNSDVVKVFLTGNTPEATILEGASGVVAVGHYYGDELEWLRRHSRHLVFADYAPAGDMEDTVLSDVSQAMIRLLEAVHAMGYRRIGFIGWIDAFYGPDNIHSERRCHTYIDWMTKTGLFDPELCLVDPMTPDSGYRLAKAMLSKPNPPKILITCNDNMALGAYRAINEMGLRIPDDVAVASFNDIPVAQFLGPPLSTVKIPAELIGETAVDLLVERLSGREVAKKVVFGTEIIWRASTEGHHHHHH,soluble
8,MGSDKIHHHHHHMNTYIKILLGTCCSFSILSCSNNLDETVYSKVTEQTYNYTVDDFTPSIASVYSYLRSQSDHWGYFCAQEVSADAIVMPPNASGWDDGGAYRRMHYQTWNSEQDHVKNIWSWFYQGALLCNKIIEQIKTGVIPTPSDTEKTQGLAELRAMRAYYYWQICDNFGDAPLVTTTAMDLPAKNTRREIFDFVENELIEVIPNLSEEVGGNYYGRMTKWAAKALLANLYLNAQVYINEARWNDCITQCDDIINSGKFTLAENYKDLFRALGVESCKEIIFTIPYDENFATGNSIFMFSWHGELKKKYNTIDTPWGCGSAMGVTQFIDTYNEKDSRLADTWLMGQQLAADGTPLYGTYDKMGEPLIYTKDIPSGNYTSELEGYRMNKFEVAENSYSSSNTDIPVFRYAEIMMMKAECLLRTGKSGAGTLVTQVRQRAFKDNPELATVTDSQLAGNTCYQYGYVEDYKIVDRGNTDPIQFGRMYDELGWEFAWEMHRRRDAIRFGIYTTKSWLSHKPEGDYRSVFPIPETVLTSNPNLEQNPNYL,not soluble
9,MGSDKIHHHHHHMLKENRSLDRGIEILETLAREGAMSLADLHRATGLPKSTLRRLLQTLIARKIVRRSLADKLYRTLVVFPDISGEVMPKGMLHISEAAIPRALALTKEIGWPSDIHIRETRAMRIIDNTRHASTFHVERGQINQRVSHFGSATGLACLAEMKDAEIATIYEAFKPDLQWGPVRFGLDLAGLMARIEQVRQVGYAERLSAPMSDPDWDTDLRAIAVAIKARGRVVGGLSVLWLRPYKPVEEFARLHLEALQTAAAEINATLDAVWEDAAT,not soluble
10,ELYVVASPKSPIMEINKEQLSALYLGRNRVVGNTYINQVLDRSGTVRQRFFLQVTNMQESQINAYWAKLKFSGRLRAPESVVSEQELIAKLEENPFSIGYTDQVPSDALKVLLVL,not soluble
11,MAVNGKTLIRRFNDYCPEWLAETGDPVGLHIGTLDKPIENVMVTLDVRPEVVAEAIEKQVDLIIAKHPPIFRPVKRLTTDNFQEKMYADLLKHDIAVYAAHTNMDIIDNGLNDWFCELLGIKQTTFLTKTHTVPYKKLAVFVPIDEAPQMREALGLAGAGSQGDYSKTSYSLIGTGRFTPTQGANPTIGEIGQESVVQEAKIEVIFPETKQEQVLAAMLQAHPYEEPAYDVYTIENQSKEFGLGRVGVLDKPVRFSYFVQQVKEAFQLDGLRVIAKDDTKMIQRVAICGGSGEKFYHDALRKQADVYITGDVYYHTAHDMIAEDLPVIDPGHYIEALCKPKLVELMNQWKQENEWAVSIFESEANTNPFRFK,not soluble
12,MDKKPLNTLISATGLWMSRTGTIHKIKHHEVSRSKIYIEMACGDHLVVNNSRSSRTARALRHHKYRKTCKRCRVSDEDLNKFLTKANEDQTSVKVKVVSAPTRTKKAMPKSVARAPKPLENTEAAQAQPSGSKFSPAIPVSTQESVSVPASVSTSISSISTGATASALVKGNTNPITSMSAPVQASAPALTKSQTDRLEVLLNPKDEISLNSGKPFRELESELLSRRKKDLQQIYAEERENYLGKLEREITRFFVDRGFLEIKSPILIPLEYIERMGIDNDTELSKQIFRVDKNFCLRPMLAPNLYNYLRKLDRALPDPIKIFEIGPCYRKESDGKEHLEEFTMLNFCQMGSGCTRENLESIITDFLNHLGIDFKIVGDSCMVYGDTLDVMHGDLELSSAVVGPIPLDREWGIDKPWIGAGFGLERLLKVKHDFKNIKRAARSESYYNGISTNL,soluble
13,MSLAEKKERIRFMTVDDVDAVVRVEEQTFTVPWSREAFINEVTNNQFARYVVYEVGEQIVGYCGVWVVYDESHITNIAIHPDYRGEKRGEALLRYILEFARLLGAKKLSLEVRISNEIAQRLYRKFGFQAGGIRKNYYTDNQEDALVMWVMLSEGHHHHHH,soluble
14,EGFYRHQTQSFSFMVNNVQVVFPSSTSKPWQGLASRRQIDIPQEKVDMIKQSGFVQQASSVYAKWDANITNLKGQNLSSTVSGIDTSYFPLIQRKLQSGSRNLSPSDMKNHTRVAVLGDQIAQMGGIQIGDRLKVNGIPFLVIGITVGEDTGISFGDSRTVFIPQTTYRDLWDAKPWMVLMKPRDGMDAPSFRQNIVNFFAKQLHFDPSDKDAVELPDFSEGAAVISGILRGIQI,not soluble
15,MEEKPKYKRILLKLSGEAFAGEQGYGIDPAFLEYISHEIKNVYDLGVQVAIVIGGGNIFRGFQGKEIGVDRATADYMGMLATVINALALQSALENHVNIPTRVLSAIEMRQVAEPYIRRRAIRHLEKGRIVIFAGGTGNPFFSTDTAAALRAAEIGAEVLIKATKVGGIYDKDPEKYPDAVLIKEISYLEVINMGLKVMDHTALTLCKENEIPIIVLNVKEKGNLRRAVLGEEVGSVVRGLEHHHHHH,not soluble
16,MKRVVLYIKDKCPHCKDAQRYLDSKGIKYRLCNAKMERGRKELDALGARSVPVLKIGDRLMIGWNHTNFERIYSSKD,not soluble
17,MVYFEEVRRHIRIDAAHVYGGLLATLTALYEYHQIPYEGIPVGTIKKKMTGKGNASKEEIIKVVCAKGHASCDDNEADALATLHVMKGKEIRHVN,not soluble
18,QEQQQELAQLEMARSALDSLSELICLQDCQGNLLTTNRAFDQFWEGRREEAITATASRVATRKSERKWTTDTQGRSCLLEVNLSSLVSPSGELLGTLSISHDVT,not soluble
19,MPLSGEYAPSPLDWSREQADTYMKSGGTEGTQLQGKPVILLTTVGAKTGKLRKTPLMRVEHDGQYAIVASLGGAPKNPVWYHNVVKNPRVELQDGTVTGDYDAREVFGDEKAIWWQRAVAVWPDYASYQTKTDRQIPVFVLTPVRAGG,soluble
